Among the data in patent US20250019430A1 (SEOUL NATIONAL UNIVERSITY HOSPITAL, published 2025) are binding result and Kd values, retold here.

T1: murine resistin (#450-28) from peprotech (mouse, UniProt Q99P87 21-114)
T1 construct: Bought; also called mouse antigen; mouse resistin antigen
T1 sequence (looked up): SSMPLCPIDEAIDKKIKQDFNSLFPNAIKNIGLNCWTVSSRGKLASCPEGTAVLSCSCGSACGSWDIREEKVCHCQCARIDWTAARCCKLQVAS

T2: resistin antigen (UniProt Q9HD89 19-108, limits assumed)
T2 construct: Used for the Octet assays and the monophage ELISAs, where only 'resistin antigen' is printed; tags not known; also called resistin antigen protein
T2 sequence (looked up): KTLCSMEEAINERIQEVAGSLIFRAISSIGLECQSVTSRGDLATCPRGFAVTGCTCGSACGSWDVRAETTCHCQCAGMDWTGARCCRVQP

B1: RETN-5A2 (antibody, human IgG1, V domains shown)
VH: QVQLVQSGAEGRKPGSSVKVSCKVSGDTFSSYAISWVRQAPGQGLEWMGGIIPIFGAADYAQKFKGRVTISADESTSTAYMELSSLRSEDTAVYYCAKGPDYYGSFDPWGQGTLITVSS
VL: DIQMTQSPSFLSASVGDRVTITCRASQYIGTYLAWYQQQPGKAPKLLIYGASILQNGVPSRFSGSASGTEFTLTISSLQPEDFATYYCQQADSFPLTFGGGTKVDIKR
notes: Human antibody from scFv phage library, converted to IgG and made in HEK293F cells; also called parent antibody 5A2; resistin 5A2 parent antibody
B2: RETN-5A2_LS_2H10 (antibody, human IgG1, V domains shown)
VH: B1 VH
VL: NFMLTQPASVSGSPGQSITISCTGSSSDVGGYNYVTWYQQHPGKAPQLIIYDVTKRPSGVSNRFSGSKSGNSASLTISGLQAEDEADYYCSSYSSSTFYVFGTGTKVTVLR
notes: Light chain shuffled variant of RETN-5A2, tested as IgG
B3: RETN-5A2_LS_2E10 (antibody, human IgG1, V domains shown)
VH: B1 VH
VL: DIQMTQSPSSLSASVGDRVTITCRTSQTITNYLNWYQQKPGRAPKLLIFDASNLETGVPSRFSGSGSGTDFTLTISSLQPEDFATYFCQQSYNPGYTFGQGTKLEIKR
notes: as for B2
B4: RETN-5A2_LS_1F11 (antibody, human IgG1, V domains shown)
VH: B1 VH
VL: not shown
notes: as for B2
B5: RETN-5A2_LS_2D07 (antibody, human IgG1, V domains shown)
VH: B1 VH
VL: QSALTQPASVSGSPGQSVTISCTGTSSDIGRYNRVSWYQHHPGKAPKLIIYDVSNRPSGVSNRFSGSKSGNTASLTISGLQAGDESDYYCSAYTRSSTWVFGGGTKLTVLR
notes: as for B2
B6: RETN-5A2_LS_2G03 (antibody, human IgG1, V domains shown)
VH: B1 VH
VL: DIQMTQSPSSLSASVGDRVTITCQASQHVSSYLNWYQQKPGKAPKLLIYAASNLQSGVPSRFSGSGSGTDFTLTISSLQPDDFATYYCQQYDSYSSVYTFGPGTKLDIKR
notes: as for B2
B7: RETN-5A2_LS_2F11 (antibody, human IgG1, V domains shown)
VH: B1 VH
VL: DIQMTQSPSSLSASVGDRVTITCRASQSIGTYLNWYQQKPGKAPKLLIYDASSLEDGVPSRFSGSGSGTDFTLTISSLQPEDSATYYCQQSYTMPLYTFGQGTKLEIKR
notes: as for B2
B8: RETN-5A2_LS_2B02 (antibody, human IgG1, V domains shown)
VH: B1 VH
VL: DIQMTQSPGTLSLSAGERATLSCRASQSVRGSYLAWYQQKPGQAPRLLIYGTSSRAPGIPDRFSGSGSGTDFTLTISSLEPEDFAVYYCQQRGDWLYTFGQGTKVEIKR
notes: as for B2

The first experiment addresses T1, murine resistin (#450-28) from peprotech. Description: ELISA, coated murine resistin. How it is done:
The mouse antigen was murine resistin (#450-28) from peprotech. Mouse antigen was diluted to 10 nM in DPBS in 96-well immune plates (NUNC, 439454) at 100 μl per well, and coated for 16 hours at 4° C. It was then blocked with skim milk diluted 4% in PBS for 1 hour at 37° C. Antibody proteins were diluted in 1% skim milk diluted in PBS to 1, 10, and 100 nM, respectively, at 100 μl per well and incubated for 2 hours at 37° C. After washing with PBS-T, anti-human Fc-HRP (Pierce® Peroxidase Conjugated Goat Anti-Human IgG FC (thermo fisher scientific, 31413)) was diluted at 1:10,000 dilution and reacted for 1 hour at 37° C. as a secondary antibody. After PBS-T washing, 100 μl of TMB (sigma, T0440) solution was applied to each well for a 10 min substrate reaction. After 10 minutes, the substrate reaction was stopped by treating each well with 50 μl of 1N H₂SO₄ and measured at 490 nm using a spectrophotometer (thermo fisher scientific, 51119200).
Background: In an ELISA, binding on a coated surface is turned into a signal by an enzyme label.
B1: the binding result is “no binding (tested: antibody at 1, 10 and 100 nM)”.

In the next experiment the target is T2, resistin antigen. Description: Octet, resistin antigen on the biosensor, antibody in solution. The source says: To investigate the affinity between the antibody and the resistin antigen, the Octet (Forte bio) system, which enables real-time investigation of ligand-receptor binding using a biosensor, was used. The system is an instrument that binds resistin antigen protein to a biosensor, flows antibody through it, and optically analyzes the degree of antibody binding to the antigen bound to the sensor, measuring the level of antibody binding to the antigen with high sensitivity at the light wavelength level. The affinity for the resistin antigen was expressed as Kₒₙ (association constants, binding rate) and Kdis (dissociation constants, dissociation rate) between the receptor and ligand, and KD (equilibrium dissociation constant) for the reaction of binding and dissociation.
Regarding B1, the Kd (commonly a measure of binding affinity in units of concentration) is not above 1 nM. On the same count and under the same terms, next, B2: not above 1 nM; B3: not above 1 nM; B4: not above 1 nM.

With B5, the Kd was not above 1 nM.

On to B6, for which the Kd is not above 1 nM. On the same count and under the same terms, the figure for B7 is not above 1 nM. Molecule B8 displayed a Kd not above 1 nM.
